Laboratory results published in patent publication US20190359693A1.
Where a chain is given by its changes, count along the chain named.

B1: SD3023 (VHH)
VHH: EVQLLESGGGLVQAGGSLRLSCAASGRTYAMSWFRQAPGKEREFVSHINALGTRTYYADSVKGRFTISRDNSKNTLYLQMNSLRPEDTAVYYCTAQGQWRAAPVAVAAEYEFWGQGTQVTVSS
B2: SD3024 (VHH)
VHH: B1 VHH with A14P, P85A
B3: SD3025 (VHH)
VHH: B1 VHH with A14P, S46A, P85A
B4: SD3026 (VHH)
VHH: B1 VHH with A14P, H47A, P85A
B5: SD3027 (VHH)
VHH: B1 VHH with H47A
B6: SD3028 (VHH)
VHH: B1 VHH with S46A
B7: SD3094 (VHH)
VHH: B1 VHH with A14P, S32G, S46A, P85A, Q118L
B8: SD3095 (VHH)
VHH: B1 VHH with A14P, S32G, S46A, Q118L
B9: SD3096 (VHH)
VHH: B1 VHH with A14P, S32G, S46A, L76V, Q118L
B10: SD3098 (VHH)
VHH: B1 VHH with A14P, S32G, S46A, H47A, Q118L
B11: SD3041 (VHH)
VHH: EVQLVESGGGLVQPGGSLRLSCAASGRTLSIYSMSWFRQAPGKEREFVSAIGWNSGRTYYADSVKGRFTISRDNSKNTLYLQMNSLRAEDTAVYYCAAAKGPLRLSSQADYWGQGTQVTVSS
B12: SD3042 (VHH)
VHH: B11 VHH with A50T
B13: SD3043 (VHH)
VHH: B11 VHH with S49A, A50T
B14: SD3044 (VHH)
VHH: B11 VHH with A50T, S75A, K76R
B15: SD3045 (VHH)
VHH: B11 VHH with P14A
B16: SD3046 (VHH)
VHH: B11 VHH with P14A, A50T
B17: SD3047 (VHH)
VHH: B11 VHH with P14A, S49A, A50T
B18: SD3048 (VHH)
VHH: B11 VHH with P14A, A50T, S75A, K76R
B19: SD3103 (VHH)
VHH: EVQLVESGGGLVQPGGSLRLSCAISGLSLDTYAVGWFRQAPGKEREGVSCISSGHGDTYYADSVKGRFTISTDNSKNTLYLQMNSLRAEDTAVYYCATESRYYCSDNWPAPQRYIYWGQGTLVTVSS
B20: SD3104 (VHH)
VHH: B19 VHH with D57N

Biological target: hemagglutinin (HA) of influenza A/New York/107/03 (PR8) (influenza A virus A/New York/107/03 (PR8))
Assay: cell-based or functional assay

| Binder | VNA IC50 [nM] |
| --- | --- |
| B1 | 16 |
| B2 | 20 |
| B3 | 13 |
| B4 | 8 |
| B5 | 6 |
| B6 | 26 |
| B7 | 6 |
| B8 | 6 |
| B9 | 5 |
| B10 | 16 |
| B11 | > 1000 |
| B12 | > 1000 |
| B13 | > 1000 |
| B14 | > 1000 |
| B15 | > 1000 |
| B16 | > 1000 |
| B17 | > 1000 |
| B18 | 858 |

Biological target: hemagglutinin (HA) of influenza A/Brisbane/10/07 (H3N2) (influenza A virus A/Brisbane/10/07 (H3N2))
Assay: cell-based or functional assay

| Binder | VNA IC50 [nM] |
| --- | --- |
| B1 | 64 |
| B2 | 80 |
| B3 | 160 |
| B4 | 16 |
| B5 | 16 |
| B6 | 101 |
| B7 | 8 |
| B8 | 8 |
| B9 | 26 |
| B10 | 4 |

Biological target: hemagglutinin (HA) of influenza B/Lee/40 (Old) (influenza B virus) (UniProt P03460)
Sequence (P03460 16-584 limits assumed): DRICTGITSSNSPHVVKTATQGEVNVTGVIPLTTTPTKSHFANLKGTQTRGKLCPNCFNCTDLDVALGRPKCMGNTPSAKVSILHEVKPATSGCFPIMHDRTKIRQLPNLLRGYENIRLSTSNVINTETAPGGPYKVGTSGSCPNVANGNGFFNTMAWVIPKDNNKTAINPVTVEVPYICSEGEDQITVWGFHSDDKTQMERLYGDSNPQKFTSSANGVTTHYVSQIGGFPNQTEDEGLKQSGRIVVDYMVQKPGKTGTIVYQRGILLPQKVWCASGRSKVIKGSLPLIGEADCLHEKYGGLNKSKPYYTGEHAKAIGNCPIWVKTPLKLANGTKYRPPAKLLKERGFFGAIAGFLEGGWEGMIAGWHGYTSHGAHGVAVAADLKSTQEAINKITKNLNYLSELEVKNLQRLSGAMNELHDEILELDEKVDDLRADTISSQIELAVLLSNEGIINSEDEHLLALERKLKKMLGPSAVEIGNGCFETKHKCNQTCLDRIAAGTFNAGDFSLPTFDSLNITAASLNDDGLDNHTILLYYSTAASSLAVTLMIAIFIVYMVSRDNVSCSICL
Assay: cell-based or functional assay

| Binder | VNA IC50 [nM] |
| --- | --- |
| B19 | > 1000 |
| B20 | > 1000 |

Biological target: hemagglutinin (HA) of influenza B/Harbin/7/94 (Yamagata) (influenza B virus)
Assay: cell-based or functional assay

| Binder | VNA IC50 [nM] |
| --- | --- |
| B19 | > 1000 |
| B20 | > 1000 |
